The star is where a group is joined. AMC = Cc1cc(=O)oc2cc(N*)ccc12; Boc = CC(C)(C)OC(=O)*
Key:
[1] = molecular target: lysylendopeptidase (Achromobacter lyticus, UniProt P15636); assay: Cleavage of fluorescence-labeled substrate peptide by lysylendopeptidase; assay type: biochemical; conditions: 5×10^−6 AU lysylendopeptidase; FIG. 1
Procedure: (§1) 1 μl of DMSO solution containing 10 mM substrate peptide, Boc-Val-Leu-(Ac)Lys-MCA, was added to 64 μl HDAC reaction buffer (25 mM Tris-HCl pH 7.5) for each assay. The mixture was poured into the wells of a microplate for fluorometry and was incubated at 30° C. Then, 10 μl of histone deacetylase solution was added to each well and the plate was subjected for deacetylation at 30° C. for 60 minutes. After the reaction, 5 μl of peptidase solution that was diluted with 25 mM Tris-HCl (pH 7.5) to an optimal concentration and 20 μl 5× protease reaction buffer were added to each well. The fluorescence intensity was measured every 150 seconds with fluorescence microplate reader. The fluorescence intensity was measured using Wallac 1420 ARVOsx Multi Label Counter (Amersham-Pharmacia Biotech). The composition of the reaction buffer was as follows.
(§2) 5×10^−6 AU lysylendopeptidase or 0.001U plasmin was added to Boc-Val-Leu-Lys-MCA or Boc-Val-Leu-(Ac)Lys-MCA. The Figures show the fluorescence intensity measured at an interval of about 150-seconds.

[2] = molecular target: plasmin (Homo sapiens, UniProt P00747); assay: Cleavage of fluorescence-labeled substrate peptide by plasmin; assay type: biochemical; conditions: 0.001U plasmin; FIG. 2
Procedure: as §1, §2

[3] = molecular target: T1, recombinant SIRT1 (Homo sapiens, UniProt Q96EB6); assay: SIRT1 deacetylase activity assay (FMAP) with Nma-VGAK(Ac)RHSK(Dnp)-NH2 and lysylendopeptidase; assay type: biochemical; conditions: serial dilutions of NAD added to the reaction solution; FIG. 7
T1 construct: the first amino acid residue to the 747th residue of SIRT1 (full length) was amplified using this primer set; made in house; host or cells: E. coli BL21 Gold (DE3), vector pGEX-4T-1
T1 sequence (Q96EB6 1-747): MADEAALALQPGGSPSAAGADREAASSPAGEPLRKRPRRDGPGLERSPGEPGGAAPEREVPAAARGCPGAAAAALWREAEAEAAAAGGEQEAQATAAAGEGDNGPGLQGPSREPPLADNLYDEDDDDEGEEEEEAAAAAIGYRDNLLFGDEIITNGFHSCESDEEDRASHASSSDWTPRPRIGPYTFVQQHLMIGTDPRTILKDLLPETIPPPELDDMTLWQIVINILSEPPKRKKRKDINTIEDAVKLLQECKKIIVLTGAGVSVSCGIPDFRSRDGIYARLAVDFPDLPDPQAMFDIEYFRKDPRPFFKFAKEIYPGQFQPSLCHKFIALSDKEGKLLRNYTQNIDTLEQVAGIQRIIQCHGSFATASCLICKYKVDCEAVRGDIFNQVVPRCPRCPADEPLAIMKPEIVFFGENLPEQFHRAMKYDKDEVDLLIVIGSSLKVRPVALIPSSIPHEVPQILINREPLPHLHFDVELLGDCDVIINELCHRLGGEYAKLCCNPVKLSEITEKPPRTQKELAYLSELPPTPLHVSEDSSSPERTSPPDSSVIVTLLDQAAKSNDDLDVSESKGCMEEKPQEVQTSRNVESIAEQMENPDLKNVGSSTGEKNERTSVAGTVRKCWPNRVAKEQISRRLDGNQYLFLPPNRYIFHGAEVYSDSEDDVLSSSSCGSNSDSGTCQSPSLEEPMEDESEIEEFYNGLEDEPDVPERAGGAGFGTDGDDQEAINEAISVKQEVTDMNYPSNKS
Procedure: Peptide for the SIRT1-activity assay: Nma-VGAK(Ac)RHSK(Dnp)-NH2
5 μl of 0.005 U/μl lysylendopeptidase (LEP) was combined with 90 μl of an enzyme reaction buffer (50 mM Tris-HCl (pH 8.8), 4 mM MgCl2, 0.2 mM DTT) and 1 μl of 10 mM peptide solution for SIRT1-activity assay. 2 μl of 5 mM NAD and 2 μl of each of serial dilutions of a recombinant SIRT1 solution, or alternatively 2 μl of each of serial dilutions of an NAD solution and 2 μl of a solution containing 1 mg/ml recombinant SIRT1 were added at the same time to the mixture. The enzyme reaction and fluorescence assay were performed at 30° C. using 384-well plates for fluorescence assay.
The fluorescence intensity was measured at excitation wavelength 355 nm/fluorescence wavelength 460 nm by using a Wallac 1420 ARVO HTS Multi Label Counter. The measurement was repeated at about 2- to 3-minute intervals for 50 minutes.
It has been reported that the presence of NAD is essential for the deacetylase activity of SIRT1. In order to assess whether the NAD-dependency of SIRT1 activity can be detected using the assay method, an NAD solution was serially diluted and each dilution was added to the reaction solution, and then observation was made for the changes in the fluorescence intensity.

[4] = tested on: histone deacetylase; assay: Histone deacetylase activity assay with Boc-Val-Leu-(Ac)Lys-MCA and lysylendopeptidase (fluorescence); assay type: biochemical, human; conditions: at a concentration of about 200 nM; FIG. 5
Procedure: MCF7 cells were washed with PBS, and then centrifuged. Precipitated cells were suspended in 4 ml lysis buffer and were left standing 15 minutes on ice. 5 ml lysate buffer was obtained by washing the centrifuge tube with 1 ml lysis buffer. The lysate was loaded on 15 ml sucrose cushion buffer in a centrifuge tube for type-07 rotor. Then, The tubes were centrifuged at 1300 g for 20 minutes and precipitated cells were recovered with 1.5 ml of the lysis buffer. After washing the cells, the cells were suspended in 700 μl low-salt buffer. The cells were sonicated for 30 seconds, and then allowed to stand still on ice for 30 minutes. The lysate was centrifuged at 100,000 g for 40 minutes, and the supernatant was collected to recover crude histone deacetylase. The pooled crude histone deacetylase was placed in a 1.5-ml tube, and was dialyzed overnight against a solution containing 50% glycerol, 150 mM NaCl, and 20 mM Tris (pH 7.5). The dialysate was substituted 3 times with fresh buffer. […]
1 μl of DMSO solution containing 10 mM substrate peptide, Boc-Val-Leu-(Ac)Lys-MCA, was added to 64 μl HDAC reaction buffer (25 mM Tris-HCl pH 7.5) for each assay. […] The fluorescence intensity was measured every 150 seconds with fluorescence microplate reader. The fluorescence intensity was measured using Wallac 1420 ARVOsx Multi Label Counter (Amersham-Pharmacia Biotech). […]

lysylendopeptidase, sequence (P15636 206-473 limits assumed, species assumed): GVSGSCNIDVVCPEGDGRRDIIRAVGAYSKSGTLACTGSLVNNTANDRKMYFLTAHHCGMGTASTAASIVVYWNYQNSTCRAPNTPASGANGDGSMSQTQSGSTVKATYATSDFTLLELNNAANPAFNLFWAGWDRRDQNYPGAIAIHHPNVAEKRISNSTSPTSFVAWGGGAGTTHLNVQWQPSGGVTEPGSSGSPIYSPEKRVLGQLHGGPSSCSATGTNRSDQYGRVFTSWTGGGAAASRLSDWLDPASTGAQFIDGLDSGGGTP
plasmin, sequence (P00747 581-810 limits assumed, species assumed): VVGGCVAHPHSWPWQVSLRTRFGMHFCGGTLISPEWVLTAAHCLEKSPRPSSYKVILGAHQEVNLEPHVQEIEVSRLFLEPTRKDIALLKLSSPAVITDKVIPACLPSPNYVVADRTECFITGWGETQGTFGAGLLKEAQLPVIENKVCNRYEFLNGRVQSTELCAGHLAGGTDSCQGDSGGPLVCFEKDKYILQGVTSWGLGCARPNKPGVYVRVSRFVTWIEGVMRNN
plasmin, sequence (P00747 97-580 partner limits assumed, species assumed): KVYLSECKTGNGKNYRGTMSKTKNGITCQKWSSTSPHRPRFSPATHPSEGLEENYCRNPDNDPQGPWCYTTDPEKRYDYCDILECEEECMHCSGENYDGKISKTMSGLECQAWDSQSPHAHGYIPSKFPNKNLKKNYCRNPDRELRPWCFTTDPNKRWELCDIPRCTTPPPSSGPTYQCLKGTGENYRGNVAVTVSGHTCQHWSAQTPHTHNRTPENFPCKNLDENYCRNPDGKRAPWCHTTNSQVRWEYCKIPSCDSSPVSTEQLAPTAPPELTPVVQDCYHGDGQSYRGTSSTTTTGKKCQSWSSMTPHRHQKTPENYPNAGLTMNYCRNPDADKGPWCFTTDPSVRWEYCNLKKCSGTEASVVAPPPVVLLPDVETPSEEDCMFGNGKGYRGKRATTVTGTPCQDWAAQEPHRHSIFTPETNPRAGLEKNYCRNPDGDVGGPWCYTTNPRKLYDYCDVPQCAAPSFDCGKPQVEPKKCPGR

Molecule	peptide cleavage by lysylendopeptidase [1]	peptide cleavage by plasmin [2]	fluorescence intensity (deacetylation activity of recombinant SIRT1) [3]	effect on the deacetylation reaction (inhibition) [4]
Boc-Val-Leu-Lys-MCA (Boc-Val-Leu-Lys-{AMC}) [fluorescence labeled substrate peptide, non-acetylated]	digested	digested		
Boc-Val-Leu-(Ac)Lys-MCA (VLK; HELM PEPTIDE1{[CC(C)(C)OC(=O)[*:2]].V.L.K.[Cc1cc(=O)oc2cc(N[*:1])ccc12]}|PEPTIDE2{[ac]}$PEPTIDE1,PEPTIDE2,4:R3-1:R2$$$V2.0; SMILES CC(=O)NCCCC[C@H](NC(=O)[C@H](CC(C)C)NC(=O)[C@@H](NC(=O)OC(C)(C)C)C(C)C)C(=O)Nc1ccc2c(C)cc(=O)oc2c1) [fluorescence labeled substrate peptide with an acetylated lysine residue]	did not cleave	did not cleave		
NC(=O)c1ccc[n+]([C@@H]2O[C@H](COP(=O)([O-])OP(=O)(O)OC[C@H]3O[C@@H](n4cnc5c(N)ncnc54)[C@H](O)[C@@H]3O)[C@@H](O)[C@H]2O)c1 [NAD]			increased in an NAD concentration-dependent fashion	
CC(/C=C/C(=O)NO)=C\[C@@H](C)C(=O)c1ccc(N(C)C)cc1 [Trichostatin A]				almost completely inhibited

— patent publication US7256013B2, “Kit for determining the acetylation level of a peptide based on sensitivity of the peptide to peptidase” (Cyclex Co., Ltd., priority 1999, dated 2007)
